Measurements published in US20050069542A1 (Human Genome Sciences, published 2005).
Residue numbers refer to the chain shown, from its start.

T1: flag-tagged soluble TL3 (amino acids 105-251 of SEQ ID NO:234) (Homo sapiens (Human), UniProt O75888 105-250)
T1 construct: Heterologous flag-tagged control protein, immobilized in the ELISA; also called flagged tagged TL-3; not shown: Flag tag
T1 sequence: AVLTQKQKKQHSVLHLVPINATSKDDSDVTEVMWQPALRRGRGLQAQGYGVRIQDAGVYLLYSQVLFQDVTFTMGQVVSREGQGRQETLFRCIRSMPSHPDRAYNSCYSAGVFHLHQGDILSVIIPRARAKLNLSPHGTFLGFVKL

B1: GMBC628 (scFv)
scFv: QVQLQQSGAEVKKPGASVRVSCKASGYTFTSYGFSWVRQAPGQRLEWMGWISAYKGNANYAEKFQGRVTMTTDTSTNTAYMELRSLRSDDTAVYYCARTRISVAGLDYYYYGLDVWGRGTLVTVSSGGGGSGGGGSGGGGSSELTQDPAVSVALGQTVRITCQGDSLRSYYTNWFQQKPGQAPLLVVYAKNNRPSGIPDRFSGSSSGNTASLTITGAQAEDEADYYCNSRDSSGNHVVFGGGTKLTVLG
B2: GMBC618 (scFv)
scFv: EVQLVQSGGGLVKPGGSLRLSCAASGFKFDDAWMNWVRQAPGKGLEWVGRIKSKRSGGTIDYAAPVKDRFTISRDDSKNTLYLQMNSLRTEDTALYYCTWDWDFYYGMNVWGRGTLVTVSSGGGGSGGGGSGGGGSQSVLTQPPSASGTPGQRVTISCSGSSSNIGSNTVNWYQRLPGAAPQLLIYNNDQRPSGIPDRFSGSKSGTSGSLVISGLQSEDEADYYCASWDDSLNGRVFGGGTKLTVLG
B3: GMBC617 (scFv)
scFv: EVQLVETGGGLVQPGGSLRLSCAASGFTVSSNYMSWVRQAPGKGLEWVSVIYSGGSTYYADSVKGRFTISRHNSKNTLYLQMNSLRAEDTAVYYCARGLWFGELLYWGQGTLVTVSSGGGGSGGGGSGGGGSQSALTQPASVSGSRGQSITISCTGTTGDVGGYDYVSWYQQHPGKAPKLLIYGNSNRPSGVPDRFSASKSGNTASLTISGLQAEDEADYFCSTYAPPGIIMFGGGTKLTVLG
B4: GMBC629 (scFv)
scFv: QVQLVESGGGLVKPGGSLRLSCAGSGFKFSDAWMNWVRQAPGKGLEWVGRIKSKGSGGTIEYAVPVKDRFIISRDDSKDTLYLQMNSLKTEDTALYYCTWDWDFYYGMNVWGQGTLVTVSSGGGGSGGGGSGGGGSSELTQDPAVSVALGQTVRITCQGDSLRSYYTNWFQQKPGQAPLLVVYAKNKRPSGIPDRFSGSSSGNTASLTITGAQAEDEADYYCHSRDSSGNHVLFGGGTKLTVLG
B5: GMBC729 (scFv)
scFv: B4 scFv with V5Q, V64A, N86D, S164N
B6: GMBC685 (scFv)
scFv: QVQLVESGGVVVQPGGSLRLSCAASGFTFSDAWMNWVRQAPGKGLEWVGRIKSKGSGGTIDYAAPVKDRFTISRDDSKNTLYLQMNSLKTEDTALYYCTWDWDFYYGMNVWGKGTMVTVSSGGGGSGGGGSGGGGSSELTQDPAVSVALGQTVRITCQGDSLRSYYTNWFQQKPGQAPLLVVYAKNKRPSGIPDRFSGSSSGNTASLTITGAQAEDEADYYCHSRDSSGNHVLFGGGTKLTVLG
B7: GMBC627 (scFv)
scFv: GVQLVQSGGEVKKPGASVRVSCKASRYIFSNYGFSWVRQAPGQGLEWMGSIRNDKGSTNYAQGFQDRLTMTTDTSTNTVFMELRSLSSDDTAVYYCASAPYYYGMGIWGKGTLVTVSSGGGGSGGGGSGGGGSQSVLTQPASVSGSSGQSITISCTGTSSDVGGYNYVSWYQQHPGKAPKLMIYEVGNRPSGVSNRFSGSKSGNTASLTISGLQAEDEADYYCSSYTTRSTRVFGGGTKLTVLG
B8: GMBC619 (scFv)
scFv: EVQLVESGGGVVQPGRSLRLSCAASGFTFRSYGMHWVRQAPGKGLEWVAVITYDGSNKYYADSVKGRFTISRDNSKNTLYLQMNSLRADDTAVYYCARDGGGWYHPRLDYWGQGTMVTVSSGGGGSGGGGSGGGGSSELTQDPAVSVALGQTVRITCQGDSLRSYYASWYQQKPGQAPVLVIYGKNNRPSGIPDRFSGSSSGNTASLTITGAQAEDEADYYCNSRDSSGNHVVFGGGTKLTVLG
B9: GMBC667 (scFv)
scFv: QVQLQESGGGLVKPGGSLRLSCAGSGFPFSDAWMNWVRQAPGKGLEWVGRIKSKGSGGTIDYAAPVKDRFRISRDDSKNTLYLQMNSLNIEDTALYYCTWDWDFYYGMNVWGQGTTVTVSSGGGGSGGGGSGGGGSQSVLTQPASVSGSPGQSITISCTGTSSDVGGYNYVSWYQQHPGKAPKLMIYEGSKRPSGVSNRFSGSKSGNTASLTISGLQAEDEADYYCSSYTTRSTRVFGGGTKLTVLG
B10: GMBC727 (scFv)
scFv: EVQLVESGGDTVKPGGSLRLSCAGSGFTFSDAWMNWVRQAPGKGLEWVGRMKSKGSGGTRDYAAPVNGRFTISRDDSKNTLYLQMNSLNTEDTGVYYCTWDWDFYYGMNVWGRGTLVTVSSGGGGSGGGGSGGGGSQSVLTQPASVSGSPGQSITISCTGTSSDVGGYNYVSWYQQHPGKAPKLMIYEGSKRPSGVSNRFSGSKSGNTASLTISGLQAEDEADYYCSSYTTRSTRVFGGGTKLTVLG
B11: GMBC684 (scFv)
scFv: B9 scFv with Q5V, E6Q, G24A, P28K, R71T, N89K, I90T, T116P, V139A
B12: GMBC690 (scFv)
scFv: EVQLVQSGGGVVQPGRSLRLSCAASGFTFSDAWMNWVRQAPGKGLEWVGRIKSKGSGGTIDYAAPVKDRFTISRDDSKNTLYLQMNSLKTEDTALYYCTWDWDFYYGMNVWGRGTLVTVSSGGGGSGGGGSGGGGSQSVLTQPASVSGSPGQSITISCTGTSSDVGGYIYVSWYQQHPGRAPKLMIYEGSKRPSGVSNRFSGSKSGNTASLTISGLQAEDEADYYCSSYTTRSTRVFGGGTKLTVLG
B13: GMBC676 (scFv)
scFv: B12 scFv with V11L, R16G, D31H, G55A, Q84H, L116M, S153P, I169N, R180K
B14: GMBC686 (scFv)
scFv: B12 scFv with V11L, Q13K, R16G, R113Q, L116T, I169N, R180K
B15: GMBC693 (scFv)
scFv: B12 scFv with E1Q, Q6E, V11L, Q13K, R16G, R113K, I169N, R180K, N207D
B16: GMBC670 (scFv)
scFv: EVQLVETGGGLVKPGGSLRLSCVASGFTFSDAWMNWVRQAPGKGLEWVGRIKSKGSGGTIDYAAPVKDRFIISRDDSKNTLYLQVNSLKTEDTALYYCTWDWDFYYGMNVWGQGTLVTVSSGGGGSGGGGSGGGGSQSVLTQPASVSGSPGQSITISCTGTSSDVGGYNYVSWYQQHPGKAPKLMIYEGSKRPSGVSNRFSGSKSGNTASLTISGLQAEDEADYYCSSYTTRSTRVFGGGTKLTVLG
B17: GMBC672 (scFv)
scFv: B16 scFv with E1Q, E6Q, T7S, V23A, I71T, V85M, G239E
B18: GMBC679 (scFv)
scFv: QVQLVESGGGLVKPGGSLRLSCAASGFTFSDAWMNWVRQAPGKGLEWVGRIKSKGSGGTTDYAAPVKDRFTISRDDSENTLYLQMNSLKTEDTAVYYCTWDHSYYYDMAVWGRGTLVTVSSGGGGSGGGGSGGGGSQSVLTQPASVSGSPGQSITISCTGTSSDVGGYNYVSWYQQHPGKAPKLVIYEGSKRPSGVSNRFSGSKSGNTASLTISGLQAEDEADYYCSSYTTRSTRVFGGGTKLTVLG
B19: GMBC638 (scFv)
scFv: QVQLVQSGGGLVKPGESLRLSCEASGFEFNYAWMSWVRQAPGKGLEWVGRSRSVASGGTTDYAAPLQDRFTISRDDSKNTLYLQVNSLKIEDTGVYFCKWEKSEYYGMDVWGRGTMVTVSSGGGGSGGGGSGGGGSQSVLTQPASVSGSPGQSITISCTGTSSDVGGYNYVSWYQQHPGKAPKLMIYEGSKRPSGVSNRFSGSKSGNTASLTISGLQAEDEADYYCSSYTTRSTRVFGGGTKLTVLG
B20: GMBC626 (scFv)
scFv: B19 scFv with Q1E, V54E, M116P, Q217R, R232K, R235Q
B21: GMBC659 (scFv)
scFv: B19 scFv with Q6E, V54E, M116L
B22: GMBC604 (scFv)
scFv: EVQLVQSGAEVKKPGESLRISCKGSGYTFTNYWINWVRQVPGKGLEWMGMIDPTDSYAKYSPSFQGHVTISTDKSVSTAYLQWRSLQASDSAIYYCVRGYSYDLDYWGKGTLVTVSSGGGGSGGGGSGGGGSQSVLTQPASVSGSPGQSITISCTGTSSDVGGYNYVSWYQQHPGKAPKLMIYEGSKRPSGVSNRFSGSKSGNTASLTISGLQAEDEADYYCSSYTTRSTRVFGGGTKLTVLG
B23: GMBC621 (scFv)
scFv: EVQLVQSGGGVVQPGRSLRLSCAASGFTFSSYGMHWVRQAPGKGLEWVAVISYDGSNKYYADSVKGRFTISRDNSKNTLYLQMDSLRAEDTAVYFCAKRGLWTPIDYWGKGTLVTVSSGGGGSGGGGSGGGGSSELTQDPAVSVALGQTVRITCQGDSLRSYYASWYQQKPGQAPVLVIYGKNNRPSGIPDRFSGSNSGNTASLTITGAQAEDEADYYCNSRDSSGNHVVFGGGTKLTVLG

Target: T1, flag-tagged soluble TL3 (amino acids …)
Assay: phage ELISA on immobilized flag-tagged soluble TL3
Procedure: The individual phage isolates in the panel of phage, each phage expressing a unique scFv that bound to flag-tagged GMAD, were tested to ensure specificity for GMAD using an ELISA assay. The scFvs were tested in an ELISA for their ability to bind a heterologous flag-tagged protein, in this case—immobilized soluble TL3 (amino acids 105-251 of SEQ ID NO:234, GenBank Accesion Number NP_{—}003799, also described in International Patent Application Publication Number WO97/33902 and WO2001/96528 which are herein incorporated by reference in their entireties).

binding result	Binder
no binding	B1
no binding	B2
no binding	B3
no binding	B4
no binding	B5
no binding	B6
no binding	B7
no binding	B8
no binding	B9
no binding	B10
no binding	B11
no binding	B12
no binding	B13
no binding	B14
no binding	B15
no binding	B16
no binding	B17
no binding	B18
no binding	B19
no binding	B20
no binding	B21
no binding	B22
no binding	B23
